Assay results: patent US20200325237A1

Columns and labels:
[1] = target: TfR2 (transferrin receptor 2) (UniProt Q9UP52); assay: A450 plate assay on TfR2 (method not described in the text)
[2] = target: hTfR (human transferrin receptor, source and construct not stated) (human) (UniProt P02786); assay: ELISA; ratio of the Kd on transferrin-captured hTfR to the Kd on directly coated hTfR
[3] = target: hTfR (human transferrin receptor, source and construct not stated) (human) (UniProt P02786); assay: ELISA, biotinylated antibody on hTfR captured by plate-coated human holo-transferrin (Tf+TfR); fit: specific binding with Hill slope
[4] = target: hTfR (human transferrin receptor, source and construct not stated) (human) (UniProt P02786); assay: ELISA; ratio of the Kd on HFE-captured hTfR to the Kd on directly coated hTfR
[5] = target: hTfR (human transferrin receptor, source and construct not stated) (human) (UniProt P02786); assay: ELISA, biotinylated antibody on hTfR captured by plate-coated HFE (HFE+TfR); fit: specific binding with Hill slope

Sequence of hTfR (human transferrin receptor, source and construct not stated) (human) (P02786 89-760 limits assumed): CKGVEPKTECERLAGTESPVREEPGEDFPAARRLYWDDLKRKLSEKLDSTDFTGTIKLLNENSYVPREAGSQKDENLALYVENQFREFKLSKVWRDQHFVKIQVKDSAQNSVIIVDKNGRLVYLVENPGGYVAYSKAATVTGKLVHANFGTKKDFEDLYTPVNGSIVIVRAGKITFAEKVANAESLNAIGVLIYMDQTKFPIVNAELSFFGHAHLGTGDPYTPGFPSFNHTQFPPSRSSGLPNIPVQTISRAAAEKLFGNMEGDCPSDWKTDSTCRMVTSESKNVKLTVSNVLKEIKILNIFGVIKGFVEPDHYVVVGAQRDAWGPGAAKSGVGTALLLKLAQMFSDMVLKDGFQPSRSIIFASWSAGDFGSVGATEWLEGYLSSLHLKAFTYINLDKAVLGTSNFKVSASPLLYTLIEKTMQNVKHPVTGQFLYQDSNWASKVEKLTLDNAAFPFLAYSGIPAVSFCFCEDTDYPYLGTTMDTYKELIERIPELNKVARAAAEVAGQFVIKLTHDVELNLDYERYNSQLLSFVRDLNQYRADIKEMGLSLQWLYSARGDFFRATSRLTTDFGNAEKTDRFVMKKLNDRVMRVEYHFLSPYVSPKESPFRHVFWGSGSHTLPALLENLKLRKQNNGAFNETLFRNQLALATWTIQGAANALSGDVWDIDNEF
Sequence of TfR2 (transferrin receptor 2) (Q9UP52 105-801 limits assumed): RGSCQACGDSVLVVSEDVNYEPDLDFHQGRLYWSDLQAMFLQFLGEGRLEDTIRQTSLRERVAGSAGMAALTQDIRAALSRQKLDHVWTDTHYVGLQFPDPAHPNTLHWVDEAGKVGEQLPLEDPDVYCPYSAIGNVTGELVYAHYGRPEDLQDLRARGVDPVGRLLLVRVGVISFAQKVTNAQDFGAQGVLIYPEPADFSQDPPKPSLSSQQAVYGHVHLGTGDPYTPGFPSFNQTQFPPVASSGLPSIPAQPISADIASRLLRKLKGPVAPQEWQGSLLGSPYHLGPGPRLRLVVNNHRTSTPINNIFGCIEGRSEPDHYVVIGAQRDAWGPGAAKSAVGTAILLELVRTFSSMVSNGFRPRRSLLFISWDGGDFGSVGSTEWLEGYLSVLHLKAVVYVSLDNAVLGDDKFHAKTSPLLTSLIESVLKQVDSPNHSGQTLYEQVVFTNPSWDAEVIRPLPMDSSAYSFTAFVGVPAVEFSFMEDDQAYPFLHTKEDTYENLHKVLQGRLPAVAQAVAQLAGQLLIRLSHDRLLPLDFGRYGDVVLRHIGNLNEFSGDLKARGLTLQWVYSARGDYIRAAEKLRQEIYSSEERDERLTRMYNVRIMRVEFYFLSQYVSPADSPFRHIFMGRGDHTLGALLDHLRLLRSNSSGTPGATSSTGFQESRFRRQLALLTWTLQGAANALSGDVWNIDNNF

EC50 (read off the curve) [1] [nM]	Kd(Tf+TfR)/Kd(TfR) [2]	Bmax [3] [A450]	Kd [3] [nM]	h [3]	Kd(HFE+TfR)/Kd(TfR) [4]	Bmax [5] [A450]	Kd [5] [nM]	h [5]	Substance
0.3									TfR2 Ab B-6 (antibody)
	51.8	4.26	2.18	1.12	688	5.7	28.9	0.8	blocking AF2474 (antibody)
